In PMC7801515:
pKd: −log10 of the molar value. “And” between values parts separate entries of the source, which are not always exact repeats. Equal entries are not always repeated. Where two headings read alike, the source gives them in different places.

What was measured:
Assay in all cases: SPR
[1] = target: SARS-CoV-2 receptor-binding domain (RBD), residues Arg319 to Lys529 (SARS-CoV-2) (UniProt P0DTC2)
[2] = target: SARS-CoV-2 receptor-binding domain (RBD), residues Arg319 to Lys529 (SARS-CoV-2) (UniProt P0DTC2); remark: listed apart in the source
[3] = target: P2B-2F6 monoclonal antibody (human)

Substance | pKd [1] | koff [1] | pKd [2] | koff [2] | pKd [3]
P2B-2F6 monoclonal antibody | 7.72 and 7.86 and 7.85 | 0.102 s⁻¹ and 0.0911 s⁻¹ | – | – | –
P2C-1F11 monoclonal antibody | 8.62 | – | 8.96 and 8.57 and 8.86 | 0.00263 s⁻¹ and 0.00303 s⁻¹ and 0.00213 s⁻¹ | –
SARS-CoV-2 receptor-binding domain (RBD), residues Arg319 to Lys529 (from UniProt P0DTC2 319-529) (domain or fragment) | – | – | – | – | 7.81
